Data from the supplement of paper PMC9170038.

Tested on: MS2 coat protein
Assay: apparent KD of MS2 coat protein; designed switch direction (-1 OFF switch, 1 ON switch): 1; higher = weaker reporter binding
Method in brief: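 Designed RNA switches with common flanks were made on Illumina chips by stalled E. coli RNA polymerase. Titration with SNAP-549-labelled MS2 coat protein doubled from 0.7 or 1.5 nM up to 3 µM. Apparent KD is each design's median over clusters after curve-fitting normalised fluorescence.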

[1] = Eterna round: R95, input ligand: FMN 200 uM
[2] = Eterna round: R95, input ligand: microRNA oligo, concentration not stated
[3] = Eterna round: R95, input ligand: none
[4] = input ligand: microRNA oligo, concentration not stated

Row | Sequence | apparent KD of MS2 coat protein [1] [nM] | apparent KD of MS2 coat protein [2] [nM] | apparent KD of MS2 coat protein [3] [nM] | apparent KD of MS2 coat protein (input ligand: FMN 200 uM) [nM] | apparent KD of MS2 coat protein [4] [nM] | apparent KD of MS2 coat protein (input ligand: none) [nM]
1 | GGUCCGGCCUGAGCUGGACCGAAGCAUGUACAUGAGGAUCACCCAUGUCAUGUACAGGCUUUUUGCUCGUCUUGUUG [JL-shm-2.14 JL Mod] (puzzle: Sensor for hsa-mir-208a) | 691 | 17.2 | 746 |  |  | 
2 | GUACUACAUGAGGAUCACCCAUGUACAAAGGUACGAGGAUAUGCAUGGACGAAAGUUGGUGCAGAAGGCGUGGUAC [Pin2Pin #5] (puzzle: Same State 1) | 21.8 | 24.6 | 22.9 |  |  | 
3 | AGCCUGCCGCAAGGAUAUGAAGCUUUCGCUCCGUCAGAAGGUGCACAUGAGGAUCACCCAUGUAUGCAGGCCAAGAAAUAAAAC [Inbilerate] (Eterna round: R96, puzzle: Same State NG 1) |  |  |  | 20.1 | 33.9 | 52.9
4 | ACAGAGUGAAGACAGGAUAUUCGCGAUGGCACAUGAGGAUCACCCAUGUUUUGAGCACAUAAACAGAAGAAGGGUUAAAACUCAG [Zadier] (Eterna round: R96, puzzle: Same State 2) |  |  |  | 13.6 | 74.1 | 104
5 | UUAAUAAAGUAAGGAUAUACAUGAGGAUCACUCGUAGAAGGUACUAUACAUGAGGAUCACCCAUGUUCCGGUCAGAAGACUGGA [Mat - Same State NG 1 - JL mod - D4] (Eterna round: R96, puzzle: Same State NG 1) |  |  |  |  | 440 | 
6 | CUGUAUCGCGGAGGAUAUGGGCUGAGACCAGGGCAACCCUGGUCAACAUGAGGAUCACCCAUGUCCCAGAAGGCCGCGAUGCUA [Diaraenve] (Eterna round: R96, puzzle: Same State NG 2) |  |  |  | 19.7 | 73.6 | 113
7 | GGUCCAGCCUGAGCUGGACAAAAGCAUGUACAUGAGGAUCACCCAUGUCAUGUACAAGCUUUUUGCUCGUCUUGAAA [JL mod - D87 - 8] (puzzle: Sensor for hsa-mir-208a) | 359 | 16.5 | 867 |  |  | 
8 | GGUGAGAGAGUCUAGGAUAUGAAAGGAGAGACAUGAGGAUCACCCAUGUAAGAGAGAGAGGAGAGUUAGAAGGAGAAGAGAGUGG [Altered State 2-23 - Jieux - Same State 2] (puzzle: Same State 2) | 26.8 | 32 | 47 |  |  | 
9 | UUAACAUGAGGAUCACCCAUGUAUGCGUUGCUUGCAUUUUGACAGGAUAUUGUUUAUCCAUAUAGCAAGAAGGGUCGUUAGUCU [JR_SSNG3_Sub010] (Eterna round: R96, puzzle: Same State NG 3) |  |  |  | 80.9 | 63.1 | 79.1
10 | AAACGGUCGCUGCGGCAACCACAUGAGGAUCACCCAUGUACAUAGGAUAUCGCCUAAAAUACUGGCGAGAAGGGUGAUUAAAGA [Onbiriza] (Eterna round: R96, puzzle: Same State NG 3) |  |  |  | 28.7 | 17.9 | 73.7
11 | GGAGGACAUGAGGAUCACCCAUGUGGAUGAACGCUAGGAUAUGCGUGCAGGAAGAGUGGAGCAGAAGGAGUGGGUU [JR_SS1_Sub046] (puzzle: Same State 1) |  | 21.7 |  |  |  | 
12 | UUAACAUGAGGAUCACCCAUGUAUACGUAGUUUGCAUUUUGACAGGAUAUUGAAUAUCUAUAUAGCAAGAAGGGUCGUUAGUCU [JR_SSNG3_Sub007] (Eterna round: R96, puzzle: Same State NG 3) |  |  |  | 61 | 49.1 | 56.7
13 | AUUAUUAAUGCAGGAUAUGAUUAACAUGAGGAUCACCCAUGUGGUGUUGUGAGUAAGGAGAGUGAUCAGAAGGGCAUUUUUUUU [JMF's solution 6] (Eterna round: R96, puzzle: Same State NG 2) |  |  |  |  | 463 | 
14 | GUUACAUGAGGAUCACCCAUGUAUGUGUGGGAGUAAGUGUCUUAGGAUAUCUAUCAUUUAAGUUAAGAGAAGGAAGAUUGUUGU [JMF's solution 95] (Eterna round: R96, puzzle: Same State NG 3) |  |  |  | 135 | 80.4 | 108
15 | GCUCGCACGAUGACCCACAUGAGGAUCACCCAUGUGCUUGGGCAGGAUAUCUAGAUUAAGGAUGUAGAGAAGGGUCGAGCGAGC [SameState NG3 #28] (Eterna round: R96, puzzle: Same State NG 3) |  |  |  | 303 | 69.6 | 243
16 | GCCGCGUUUCGCGCCUACAUGAGGAUCACCCAUGUUUGUAGGCAGGAUAUCGUUUGCUUUGCAAGCGAGAAGGGCUGUUGUGGC [salish99_SSNG3_R04_015] (Eterna round: R96, puzzle: Same State NG 3) |  |  |  | 44.3 | 39.2 | 50.7
17 | GCUACAUCGAGCGAGGAUAUGCGGCGUAUAACAUGAGGAUCACCCAUGUCCUUCGAAUCGAGUACGCAGAAGGCGCUACGGUAGC [Big Heel] (puzzle: Same State 2) | 77.6 | 277 | 551 |  |  | 
18 | UUUGCAUGACGAGGAUAUCAUUUAUUUCUUGAUUGAGAAGGCGUUUUUUUUAUUACCUAACAUGAGGAUCACCCAUGUGACAGU [JR_SSNG1_Sub045] (Eterna round: R96, puzzle: Same State NG 1) |  |  |  | 14.8 | 19.6 | 18.4
19 | UUAAUUUACUGAGGAUAUCGUGUCGACUGAGGUGACAUGAGGAUCACCCAUGUGAGAAGUGGUAUCGAGAAGGCAGUAUUCAUA [JR_SSNG2_Sub022] (Eterna round: R96, puzzle: Same State NG 2) |  |  |  | 92.6 | 306 | 506
20 | UUACAGUGCGGGUAGGAUAUGUAGGGUGGUACAUGAGGAUCACCCAUGUAUCCACCCUUCGACCGGCAGAAGGGCCUGUCACUAC [Atarzale] (Eterna round: R96, puzzle: Same State 2) |  |  |  | 14 | 12.1 | 19.8
21 | AGGCUCAGACGAGGAUAUAUGUAAUAACAUGAGGAUCACCCAUGUGUCGAGCUUCGGCUCGACACAUAGAAGGCGUCUGAGCCA [SSNG2/2-A1] (Eterna round: R96, puzzle: Same State NG 2) |  |  |  | 8.75 | 17.4 | 25.7
22 | CUGAGGUGUCAAGGAUAUGCUACCGUUUCGGUAGCAGAAGGUGAUCACAUGAGGAUCACCCAUGUAUGCAUGCGUGAGCGUGCU [JL SSNG1 3.60] (Eterna round: R96, puzzle: Same State NG 1) |  |  |  |  | 17.8 | 
23 | CCAACGUACAAUUUAGAUCUACAUGAGGAUCACCCAUGUACGGAGGAUAUCAGCUCGAUUAGAGCUGAGAAGGCCGAAUUAAUU [SSNG3/2-A2] (Eterna round: R96, puzzle: Same State NG 3) |  |  |  | 65.7 | 119 | 430
24 | GUGGUCAGACAUGAGGAUCACCCAUGUGGAAUAAAUAAGGGACAGGAUAUCCAAUAUAGGAUAUAGGAGAAGGGUUGGUUGGUG (Eterna round: R96, puzzle: Same State NG 3) |  |  |  | 78.9 | 64.5 | 73.9
